The values that follow come from US20100204099A1 (ALBERT EINSTEIN COLLEGE OF MEDICINE OF YESHIVA UNIVERSITY, published 2010).

In assay [1] the target is T1, IGF binding protein-3 (IGFBP-3) (human, UniProt P17936 28-291, 125-I-labeled when used as probe in the dot blot).
T1 construct: also called hIGFBP-3; non glycosylated hIGFBP-3
The assay can be described thus: dot blot on nitrocellulose probed with 125-I-labeled IGFBP-3, autoradiography and densitometry (FIG. 17A).

Assay [2] addresses T1, IGF binding protein-3 (IGFBP-3). The assay can be described thus: dot blot of peptides probed with 125-I-labeled IGFBP-3 (FIG. 17A).

Where no end group is shown, it is not given here.

T1 sequence (P17936 28-291 limits assumed): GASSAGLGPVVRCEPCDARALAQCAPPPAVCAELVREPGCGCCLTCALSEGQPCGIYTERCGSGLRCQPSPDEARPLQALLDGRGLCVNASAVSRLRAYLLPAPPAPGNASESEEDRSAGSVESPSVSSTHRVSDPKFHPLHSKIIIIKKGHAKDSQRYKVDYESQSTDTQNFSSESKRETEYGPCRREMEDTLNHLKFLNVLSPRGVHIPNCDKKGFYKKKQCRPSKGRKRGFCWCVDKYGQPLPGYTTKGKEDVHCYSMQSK

B1: Humanin analog F6A (peptide)
peptide: MAPRGASCLLLLTSEIDLPVKRRA
notes: also called F6A HN; F6A-HN
With B1, the binding result in assay [1] is reported as “no binding (tested: 50 ng of peptide blotted)”.

B2: Humanin analog HNGF6A (peptide)
peptide: MAPRGASCLLLLTGEIDLPVKRRA
modifications: not fully specified
notes: also called F6AHNG; HN
Consider B2, for which the binding result in assay [1] is listed as “no binding (tested: 50 ng of peptide blotted)”.

B3: Humanin (peptide)
peptide: MAPRGFSCLLLLTSEIDLPVKRRA
notes: 50 ng was spotted on nitrocellulose in the dot blot; also called HN; human humanin
As to B3, the binding result in assay [2] is on record as “binds”.
